Patent US11655492B2, “Activated formylglycine-generating enzymes and methods of producing and using the same” (R.P. Scherer Technologies, LLC, priority 2015, dated 2023)
Where “and” joins values, the source holds several entries; their conditions need not be identical. Equal entries are not always repeated. Where two headings read alike, the source gives them in different places.

Assays:
[1] = tested on: 14 amino acid peptide ALCTPSRGSLFTGR (SEQ ID NO:8); assay: Discontinuous FGE activity assay on peptide substrate (RP-HPLC); format: biochemical
Procedure: [formula] where Et is the total enzyme in solution, and kcat and KM are the standard enzymatic parameters specified by the STRENDA commission. Units of enzyme specific activity are the katal, where 1 kat=1 mol·s^−1. Kinetic parameters were determined from nonlinear regression of [substrate] v. initial velocity using GraphPad prism.
The specific activity of FGE was measuring using a discontinuous enzymatic activity assay. The substrate for FGE was a 14 amino acid peptide containing the consensus sequence (H2N-[…]-COOH (SEQ ID NO:8)). The rate of reaction was determined by integrating the peak area at 215 nm of the starting material (Cys) and product (fGly) containing peptides on reversed-phase HPLC. The identity of product (and side product) peaks were determined by RP-HPLC MS/MS. Each aqueous reaction solution (60 μL) contained substrate peptide (100 μM), FGE (1 μM), DTT (1 mM), and buffer (25 mM triethanolamine, pH 9). A single time course consisted of 5 data points collected every 2 minutes. The reaction was initiated upon addition of FGE stock solution and vortexing for 3 s. Time points were quenched by diluting 10 μL of reaction mixture into 1 μL of 1 M HCl by hand with a micropipettor. After completion of the reaction, each time point was analyzed by RP-HPLC.
(§1) Substrate, product, and side products of the FGE substrate peptide […] (SEQ ID NO:8) were separated on RP-HPLC over 7 min with isocratic 18% MeCN in water containing 0.1% TFA. The integrated area of the fGly (2.1 min), Cys (3.3 min), βME-DS (3.6 min), and Cys-DS (6.2 min) forms of the substrate were used to calculate total area and each fraction thereof.
The specific activity of FGE was measured using a discontinuous enzymatic activity assay. The substrate for FGE was a 14 amino acid peptide containing the CXPXR consensus sequence ([…] (SEQ ID NO:8)). The rate of reaction was determined by integrating the peak areas at 215 nm of the substrate cysteine (Csub) and product (fGly) peptides on reversed-phase HPLC. The identities of product (and side product) peaks were determined by RP-HPLC MS/MS (see below). Each aqueous reaction solution (120 μL) contained Csub (100 μM), FGE (0.1-1 μM), DTT (1 mM), and buffer (25 mM TEAM, pH 9). A single time course included 5 data points collected at evenly spaced intervals. The reaction was initiated upon addition of FGE stock solution and vortexing for 3 s. The reaction vial was vortexed at 1,500 RPM and 25° C. in a thermomixer R (Eppendorf). Time points were hand quenched by adding 20 μL of reaction mixture to 2 μL of 1 M HCl using a micropipettor. After completion of the reaction, each time point was analyzed by RP-HPLC (see below).
as §1, with “integrated areas” for “integrated area”, “min), Csub” for “min), Cys”, “min), the Csub/βME disulfide (Csub-βME, 3.6” for “min), βME-DS (3.6”, “and substrate/substrate disulfide (Csub-Csub, 6.1” for “and Cys-DS (6.2”
Individual FGE reactions were initiated by rapidly mixing FGE into a premixed buffered solution of Csub and reducing agent. It was assumed that all buffered solutions contained oxygen at ˜270 μM at 25° C. (based upon Henry's law). Time points were chemically quenched by hand with HCl. […]. The identities of both the Cys- and fGly-containing peptides were confirmed by LC-MS/MS (FIG. 11). These assignments were then correlated with HPLC retention times (FIG. 14, panel a). The integrated peak areas of substrate and product were used to calculate the initial velocity of FGE (FIG. 14, panel b) using the method described by Boeker (Biochem. J., (1984), 223, 15; and Biochem. J., (1985), 226, 29).

[2] = tested on: CT-1.1 tagged Her2; assay: 293 Expi transient co-transfection of FGE form and CT tagged antibody, conversion by mass-spectrometry; format: cell-based; conditions: Expi 293F, FGE form co-transfected with Her2 CT1.1, harvest day 5-6
Procedure: A 293 Expi transient co-transfection system (Life Technologies) was used for producing antibodies having a formylglycine residue at a selected site. The system produced high antibody titers (100-500 mg/L) with variable (10-95%) conversion. […] Expi 293F that were treated with or without 50 μM copper sulfate prior to transfection were transiently co-transfected in three independent experiments with expression plasmids for full-length human FGE with an N-terminal KDEL (SEQ ID NO:7) amino acid sequence (+KDEL) and CT tagged antibody at a ratio of 3:1 antibody:FGE DNA. The culture was harvested at 5-6 days post transfection, titer assessed by ELISA, and the protein was purified and conversion was measured by mass-spectrometry.
Expi 293F cells that were treated with or without 50 μM copper sulfate prior to transfection were transiently co-transfected with expression plasmids for various forms of human FGE (+KDEL, WT, myc-His) and CT tagged antibody at a ratio of 3:1 antibody:FGE DNA. The culture was harvested at 5 days post transfection, titer assessed by ELISA, the protein was purified and conversion was measured by mass-spectrometry.

[3] = as purified from cell culture, not activated
[4] = nonlinear regression to Michaelis-Menten equation

B1: myc His: human FGE C-terminally tagged with myc-His (pRW529) (protein, UniProt Q8NBK3 34-374, looked up)
Formylglycine-generating …: SQEAGTGAGAGSLAGSCGCGTPQRPGAHGSSAAAHRYSREANAPGPVPGERQLAHSKMVPIPAGVFTMGTDDPQIKQDGEAPARRVTIDAFYMDAYEVSNTEFEKFVNSTGYLTEAEKFGDSFVFEGMLSEQVKTNIQQAVAAAPWWLPVKGANWRHPEGPDSTILHRPDHPVLHVSWNDAVAYCTWAGKRLPTEAEWEYSCRGGLHNRLFPWGNKLQPKGQHYANIWQGEFPVTNTGEDGFQGTAPVDAFPPNGYGLYNIVGNAWEWTSDWWTVHHSVEETLNPKGPPSGKDRVKKGGSYMCHRSYCYRYRCAARSQNTPDSSASNLGFRCAADRLPTMD
modifications: C-terminal myc-His tag
- specific activity of FGE isolated from Cu^2+ treated cells vs untreated cells [1]: significantly higher activity
- Conversion (%) ([2]; copper sulfate 50 μM at Day 0): 78% and 94%

B2: Hs-FGE: full length wild-type human FGE containing the N-terminal extension and the core, UniProt Q8NBK3 (protein, UniProt Q8NBK3 1-374, looked up)
chain: MAAPALGLVCGRCPELGLVLLLLLLSLLCGAAGSQEAGTGAGAGSLAGSCGCGTPQRPGAHGSSAAAHRYSREANAPGPVPGERQLAHSKMVPIPAGVFTMGTDDPQIKQDGEAPARRVTIDAFYMDAYEVSNTEFEKFVNSTGYLTEAEKFGDSFVFEGMLSEQVKTNIQQAVAAAPWWLPVKGANWRHPEGPDSTILHRPDHPVLHVSWNDAVAYCTWAGKRLPTEAEWEYSCRGGLHNRLFPWGNKLQPKGQHYANIWQGEFPVTNTGEDGFQGTAPVDAFPPNGYGLYNIVGNAWEWTSDWWTVHHSVEETLNPKGPPSGKDRVKKGGSYMCHRSYCYRYRCAARSQNTPDSSASNLGFRCAADRLPTMD
modifications: full-length
notes: full length wild-type human FGE containing the N-terminal extension and the core, UniProt Q8NBK3
- specific activity [1, 3]: 850 pkat·mg^−1

B3: Sc-FGE: Streptomyces coelicolor formylglycine-generating enzyme, UniProt Q9F3C7, N-terminal hexahistidine tag, expressed in E. coli (protein)
chain: MAVAAPSPAAAAEPGPAARPRSTRGQVRLPGGEFAMGDAFGEGYPADGETPVHTVRLRPFHIDETAVTNARFAAFVKATGHVTDAERFGSSAVFHLVVAAPDADVLGSAAGAPWWINVRGAHWRRPEGARSDITGRPNHPVVHVSWNDATAYARWAGKRLPTEAEWEYAARGGLAGRRYAWGDELTPGGRWRCNIWQGRFPHVNTAEDGHLSTAPVKSYRPNGHGLWNTAGNVWEWCSDWFSPTYYAESPTVDPHGPGTGAARVLRGGSYLCHDSYCNRYRVAARSSNTPDSSSGNLGFRCANDADLTSGSAAE
modifications: left off: small tags and cut ends
notes: Streptomyces coelicolor formylglycine-generating enzyme, UniProt Q9F3C7, N-terminal hexahistidine tag, expressed in E. coli
- increase of specific activity on activation [1]: more than an order of magnitude
- specific activity [1]: 3579±215 pkat·mg^−1
- specific activity [1, 3]: 214 pkat·mg^−1 and 214±34 pkat·mg^−1
- Km [1, 4]: 96 µM
- kcat [1, 4]: 0.288 s⁻¹

B4: +KDEL: full-length human FGE with an N-terminal KDEL (SEQ ID NO:7) amino acid sequence (protein, UniProt Q8NBK3 1-374, looked up)
chain: B2 chain
modifications: full-length N-terminal KDEL
- Conversion (%) ([2]; copper sulfate 0 μM): 72% and 47% and 78% and 62%
- Conversion (%) ([2]; copper sulfate 50 μM at Day 0): 93% and 94% and 95% and 88%

B5: WT: WT form of human FGE, non-KDEL (protein, UniProt Q8NBK3 34-374, looked up)
Formylglycine-generating …: B1 Formylglycine-generating …
- Conversion (%) ([2]; copper sulfate 0 μM): 77%
- Conversion (%) ([2]; copper sulfate 50 μM at Day 0): 86%
